Assay results reported in patent US20190055322A1 (Ablynx, published 2019).
Residue numbers refer to the chain shown, from its start.

B1: Nanobody 3E10 (VHH)
VHH: EVQLVESGGGLVQAGGSLRLSCTASGHTFSSYTMGWFRQAPGKEREFVAAMTRSGFNTHYSDSVKGRFTISRDNTSRDNTKITMALQMNSLKPEDTAVYYCTTGRGLTSYVANFWGQGTQVTVSS
B2: Nanobody 3B11 (VHH)
VHH: EVQLVESGGGLVQAGGSLRLSCAASGFTFDDYVIGWFRQAPGKEREGVSCISRLDGRTYYTDSVKGRFTISSDNAKNTVYLQMNSLKPEDTAVYYCALEPRYTGDYYPVHPELYDYWGQGTQVTVSS
B3: Nanobody 12B02 (VHH)
VHH: EVQLVESGGGLVQPGGSLRLSCAASGFSLGVFAIGWFRQAPGKEREGVSCIDSSDGRTTYADSVKGRFTISRDNAKNTVYLQMNSLKPEDTAVYYCATDIETDVCSGAGWGFWGQGTQVTVSS
B4: Nanobody 10C05 (VHH)
VHH: EVQLVESGGGLVQPGGSLRLSCAASGSIFSINTMGWYRQAPGKQRDLVASITMNQVPNYADSVQGRFTISRDNVRNTVHLQMNAVKPEDTADYFCNAWVRSSGASPYTNYWGQGTQVTVSS
B5: Nanobody 4C03 (VHH)
VHH: EVQLVESGGGLVQAGGSLRLSCVISASTVRNYDMGWFRQAPGKEREFVAAIDWSGGSTRYADSVKGRFTVSRDNAKNTVYLQMNSLKPEDTAVYYCVAAGFYNNYLRTAPNDWNYWGQGTLVTVSS
B6: Nanobody 4G10 (VHH)
VHH: B5 VHH with A26E, S27D, T28G, A50T, D52N, R59N, V79M, N84D, Y115D, L121Q
B7: Nanobody 2G09 (VHH)
VHH: EVQLVESGGGLVQPGGSLRLSCAASGSFGDNYELYAMTWFRQAPGERRDFVASVTGDGSTSYADSVKDRFTISRDNAKKLMYLQMNSLKPEDTAVYYCRLLNYWGQGTLVTVSS
B8: Nanobody 14B10 (VHH)
VHH: EVQLVESGGGLVQPGGSLRLSCAASGRIFSINNMGWYHQAPGKQRELVATITMNGITTYADSVKGRFTISRDNAKNTVYLQMNSLKPEDTAVYYCSCWVRSSGGDPYRDYWGQGTQVTVSS
B9: Nanobody 7C10 (VHH)
VHH: EVQLVESGGGLVQAGGSLRLSCTASGRTLSSYTMGWFRQAPGTEREFVAAMTRSGFNTYYADSVKGRFTISRDSTENTMALQMSSLKPEDTAVYYCTAGRGLTSYRADYWGQGTLVTVSS
B10: Nanobody 5E02 (VHH)
VHH: EVQLVESGGGLVQPGGSLRLSCAASGITLDSIAICWFRQAPGKEREGVSCSRGSDGSTYYADSVKGRFTISRVNAKNTVYLQMNSLKPEDTAVYYCAAAPSIFYSGGYFPSGMDYWGKGTQVTVSS
B11: Nanobody 11B09 (VHH)
VHH: EVQLVESGGGLVQAGGSLRLSCAASRLTFNHYNMGWFRQAPGKERERVAEVTWSGDKIYYVDSVKGRFTISRDNTPNPVYLYLQMNSLKPEDTAVYYCATAPRGLPYANGYWGQGTQVTVSS
B12: Nanobody 2B02 (VHH)
VHH: EVQLVESGGGLVQPGDSLRLSCAASGRILSINNMVWYRQAPGKQRELVAHITSSGSTGYADSVKGRFTISRDNAKNTFYLQMTNLNPEDTAVYYCNCWVSSDSNAPLKNYWGQGTQVTVSS
B13: Nanobody 256 (13F07-40GS-5H01) (VHH)
chain: EVQLVESGGGLVQAGGSLRLSCAASGNTFSTNPMYWYRQAEGKQRELVASISSRGITNYADSVRGRFSISRDNTKDTVYLQMNSLKPEDTAVYYCRLASLSSGTVYWGKGTLVTVSSGGGGSGGGGSGGGGSGGGGSGGGGSGGGGSGGGGSGGGGSEVQLVESGGGLVQPGGSLRLSCAASGSTLDYYAIGWFRQAPGKEREGVSCTSNSGSTYYGGSVKGRFTASRDNAKNTVYLQMNSLRPEDTAVYYCVATIGCATLGGTLDVQRYYYRGQGTLVTVSS
B14: Nanobody 257 (13F07-40GS-2B10) (VHH)
chain: EVQLVESGGGLVQAGGSLRLSCAASGNTFSTNPMYWYRQAEGKQRELVASISSRGITNYADSVRGRFSISRDNTKDTVYLQMNSLKPEDTAVYYCRLASLSSGTVYWGKGTLVTVSSGGGGSGGGGSGGGGSGGGGSGGGGSGGGGSGGGGSGGGGSEVQLVESGGGLVQPGGSLRLSCAASGSIFSINNMGWYRQAPGKQRELVTVVTSNLITTYADSVKGRFTISRDNAKNTVYLQMNSLKPEDTAVYYCNAWARSVGSVPYSQFWGQGTLVTVSS

molecular target: T1, recombinant PcrV protein (rPcrV), strain PAO1, amino acid residues 1-294, C-terminal His6 (Pseudomonas aeruginosa strain PAO1); test: SPR ProteOn, periplasmic extract on immobilised rPcrV
Throughout, for cytotox assay (% inhibition), P3X63, PA103: test concentration or dose not given here.

Binder	koff [s⁻¹]
B1	0.0015
B2	0.0027
B3	4.4e-05
B4	0.0006
B5	0.0068
B6	0.00013
B7	0.001
B8	0.00092
B9	0.00082
B10	0.00057
B11	0.0048
B12	0.00037

molecular target: T2, PcrV of P. aeruginosa strain PA103 (on TTSS-induced bacteria) (Pseudomonas aeruginosa strain PA103); test: cell-based or functional assay

Binder	Efficacy (%), P3X63 cytotoxicity, MOI 12 [%]	IC50 value (M), P3X63 cytotoxicity, MOI 12 [M]
B13	100	5.4e-11
B14	100	1.3e-10

molecular target: GST-PcrV (strain PAO1, amino acid residues 1-294) (Pseudomonas aeruginosa strain PAO1); test: SPR Biacore T100, GST-PcrV immobilised

Binder	Kd [nM]	koff [s⁻¹]	kon [M⁻¹ s⁻¹]
B1	1	0.0039	2.7e+06
B6	5	0.00065	140000
B9	2	0.0018	1.2e+06
B10	4	0.00068	180000

molecular target: T2, PcrV of P. aeruginosa strain PA103 (on …); test: cell-based or functional assay; remark: another data set of the same source

Binder	% inhibition in P3X63 cytotoxicity assay, extract 1/150 [%]
B13	65
B14	80

molecular target: T1, recombinant PcrV protein (rPcrV), …; test: ELISA, periplasmic extract on biotinylated rPcrV

Binder	binding ELISA (OD 450 nm)
B1	2.51
B2	0.55
B5	0.89
B6	2.6
B7	2.37
B9	2.55
B10	2.43
B12	2.4

molecular target: T2, PcrV of P. aeruginosa strain PA103 (on …); test: cell-based or functional assay; remark: another data set of the same source

Binder	cytotox assay (% inhibition), P3X63, PA103 [%]
B1	25
B2	26
B3	14
B4	25
B5	22
B6	81
B7	45
B8	20
B9	58
B10	71
B11	37
B12	46

molecular target: T2, PcrV of P. aeruginosa strain PA103 (on …); test: cell-based or functional assay; remark: another data set of the same source

Binder	% inhibition, P3X63 cytotoxicity assay, MOI 4 [%]	IC50 (nM), P3X63 cytotoxicity assay, MOI 4 [nM]	% inhibition, P3X63 cytotoxicity assay, MOI 3 [%]	IC50 (nM), P3X63 cytotoxicity assay, MOI 3 [nM]	% inhibition, P3X63 cytotoxicity assay, MOI 1.5 [%]	IC50 (nM), P3X63 cytotoxicity assay, MOI 1.5 [nM]
B1	94	48				
B2	54	1140				
B4			100	> 1000		
B5					> 20	8890
B6	100	105				
B7	55	4				
B8			> 70	> 3000		
B9	100	42				
B10	100	38				
B11			100	100		
B12	100	1730				

molecular target: T2, PcrV of P. aeruginosa strain PA103 (on …); test: cell-based or functional assay; remark: another data set of the same source

Binder	Ratio (IC50 Fab 13.37/IC50 Nanobody), A549 cytotoxicity [fold]
B13	21
B14	10
